Decrease in accessible MGL on the BMDC surface (anti-MGL antibodies, flow cytometry) after treatment with peptide 12 for 30 min, EC50 and fold avidity against peptide 11 data for two molecules are collected here from PMC10288512, “MUC1 Glycopeptide Vaccine Modified with a GalNAc Glycocluster Targets the Macrophage Galactose C-type Lectin on Dendritic Cells to Elicit an Improved Humoral Response” (Journal of the American Chemical Society, 2023).

Test [1] addresses MGL receptor on murine bone marrow-derived dendritic cells (mouse (endogenous in BMDCs)) (UniProt Q8JZN1).
In test [2] the target is peptide 14, MUC1 tandem repeat (glyco)peptide with a triethylene glycol spacer and the TPEaa trivalent alpha-S-GalNAc glycocluster 1 at the N-terminus, biotinylated. The experiment in a line: ELISA; biotinylated peptides 9-14 coupled to streptavidin-coated plates at twofold serial dilutions; probed with recombinant MGL-Fc at a constant concentration; detection with goat anti-human Fc-peroxidase; EC50 from curve fitting over the peptide concentration. In general terms: ELISA stands for enzyme-linked immunosorbent assay.

Test [3] deals with peptide 13, MUC1 tandem repeat (glyco)peptide with the TPEaa trivalent alpha-S-GalNAc glycocluster 1 at the N-terminus, biotinylated. The description is as above.
The target of test [4] is peptide 12, MUC1 tandem repeat peptide with the TPEaa trivalent alpha-S-GalNAc glycocluster 1 at the N-terminus, biotinylated. Described as above.

Chain of UniProt Q8JZN1 (Q8JZN1 entry or part of it): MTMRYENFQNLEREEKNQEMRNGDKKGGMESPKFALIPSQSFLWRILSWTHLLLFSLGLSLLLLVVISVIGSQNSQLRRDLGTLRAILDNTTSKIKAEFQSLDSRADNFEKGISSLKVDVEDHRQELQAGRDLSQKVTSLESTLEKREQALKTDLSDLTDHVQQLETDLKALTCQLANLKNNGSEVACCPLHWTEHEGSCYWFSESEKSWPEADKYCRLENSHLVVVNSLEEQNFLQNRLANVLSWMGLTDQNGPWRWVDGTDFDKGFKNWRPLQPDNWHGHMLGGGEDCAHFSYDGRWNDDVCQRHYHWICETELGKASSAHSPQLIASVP

Consider “peptide 12, MUC1 tandem repeat peptide with the TPEaa trivalent alpha-S-GalNAc glycocluster 1 at the N-terminus, biotinylated”, for which the decrease in accessible MGL on the BMDC surface (anti-MGL antibodies, flow cytometry) after treatment with peptide 12 for 30 min at 37 °C, against untreated cells in test [1] was 48%.

B1: recombinant MGL (macrophage galactose-type lectin) tagged with a human IgG1 Fc fragment (Fc fusion)
chain: QNSKFQRDLVTLRTDFSNFTSNTVAEIQALTSQGSSLEETIASLKAEVEGFKQERQAGVSELQEHTTQKAHLGHCPHCPSVCVPVHSEMLLRVQQLVQDLKKLTCQVATLNNNASTEGTCCPVNWVEHQDSCYWFSHSGMSWAEAEKYCQLKNAHLVVINSREEQNFVQKYLGSAYTWMGLSDPEGAWKWVDGTDYATGFQNWKPGQPDDWQGHGLGGGEDCAHFHPDGRWNDDVCQRPYHWVCEAGLGQTSQESH
Take B1: the EC50 (usually the concentration at which the effect is half-maximal) in test [2] was 2.65 nM; in test [3], 3.9 nM. The fold avidity against peptide 11 in test [3] and in test [4] was 10 fold each time.
